Marks after values point to notes of the source that are not given here. Values belong to the molecule of their own block, whether it stands above or below them. Where no end group is shown, it is not given here. The star is where a group is joined. Ethyl(2-palmitoyloxy) = CCCCCCCCCCCCCCCC(=O)OCC*
Tests used:
[1] = target: T1, CGRP (CLR/RAMP1) receptor (Homo sapiens, UniProt O60894+Q16602); assay: Antagonism of CGRP-induced cAMP accumulation in Cos 7 cells transfected with CLR/RAMP1; format: cell-based; conditions: for A2 (antilog of the negative pA2), CGRP (CLR/RAMP1): transfected Cos-7 cells, cAMP
T1 construct: expressed in transfected cells; host or cells: Cos 7 (African green monkey kidney), transient transfection with polyethylenimine
Procedure: (§1) 1. Antagonism of CGRP-Induced cAMP Accumulation in Transfected CGRP Receptor Expressing Cells
(§2) Simian vacuolating virus 40 (SV40) transformed African green monkey kidney (Cos 7) cells were transiently transfected with calcitonin receptor-like receptor (CLR) or calcitonin receptor (CTR) together with receptor activity-modifying protein 1 (RAMP1) to form CGRP or AMY1(a) receptors.
(§3) On the day of experimentation, media was replaced with 50 μl DMEM containing 1 mM isobutylmethylxanthine and 0.1% bovine serum albumin for 30 min. All peptides were diluted in assay medium and after the 30 min incubation, 25 μl antagonists were added, followed immediately by 25 μl human alpha CGRP (hαCGRP), giving a total assay volume of 100 μl. Once human alpha CGRP was added, the cells were incubated at 37° C. for 15 minutes. The media was then aspirated from the wells and reactions terminated with ice-cold absolute ethanol. Ethanol was evaporated to dryness and cAMP was quantified using a commercially-available assay (LANCE Perkin Elmer).
(§4) 3. Calculation of Antagonist Potency Values
(§5) Data were analysed using Graphpad Prism 7. Antagonist pKB or pA2 values were obtained using Global Schild analysis. […] Where a single concentration of antagonist was used, pA2 values are used to describe antagonist potency.

[2] = target: T2, AMY1 (CTR/RAMP1) receptor (Homo sapiens, UniProt O60894+P30988); assay: Antagonism of CGRP-induced cAMP accumulation in Cos 7 cells transfected with CTR/RAMP1; format: cell-based; conditions: transfected Cos-7 cells
T2 construct: expressed in transfected cells; host or cells: Cos 7 (African green monkey kidney), transient transfection with polyethylenimine
Procedure: as §1, §2, §3, §4, §5

[3] = target: human AMY1(a) receptor (CTR/RAMP1), transiently transfected in Cos 7 cells (human), P30988; assay: cell-based or functional assay
[4] = target: human CGRP receptor (CLR/RAMP1), transiently transfected in Cos 7 cells (human, UniProt Q16602 23-461; O60894 27-148); assay: cell-based or functional assay
Chain of human CGRP receptor (CLR/RAMP1), transiently transfected in Cos 7 cells (Q16602 23-461, chain 1 of 2): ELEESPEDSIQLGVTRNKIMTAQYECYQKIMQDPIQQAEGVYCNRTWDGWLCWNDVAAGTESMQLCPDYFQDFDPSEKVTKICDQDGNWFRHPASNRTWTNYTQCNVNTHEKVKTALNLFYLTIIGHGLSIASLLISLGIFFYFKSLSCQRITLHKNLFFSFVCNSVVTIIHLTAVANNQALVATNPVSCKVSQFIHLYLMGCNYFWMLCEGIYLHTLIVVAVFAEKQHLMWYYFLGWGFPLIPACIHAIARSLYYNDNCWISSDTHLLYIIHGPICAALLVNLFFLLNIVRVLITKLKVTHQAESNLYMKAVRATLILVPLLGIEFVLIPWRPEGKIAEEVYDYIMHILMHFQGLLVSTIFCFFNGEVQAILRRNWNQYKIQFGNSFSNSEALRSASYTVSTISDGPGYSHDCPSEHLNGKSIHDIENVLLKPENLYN
Chain of human CGRP receptor (CLR/RAMP1), transiently transfected in Cos 7 cells (O60894 27-148, chain 2 of 2): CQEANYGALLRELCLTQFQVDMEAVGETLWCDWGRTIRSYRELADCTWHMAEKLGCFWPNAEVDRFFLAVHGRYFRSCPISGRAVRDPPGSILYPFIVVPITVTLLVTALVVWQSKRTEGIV

T1 sequence (Q16602 23-461): as the sequence (Q16602 23-461, chain 1 of 2) above
T1 sequence (O60894 27-148): as the sequence (O60894 27-148, chain 2 of 2) above
T2 sequence (P30988 25-474): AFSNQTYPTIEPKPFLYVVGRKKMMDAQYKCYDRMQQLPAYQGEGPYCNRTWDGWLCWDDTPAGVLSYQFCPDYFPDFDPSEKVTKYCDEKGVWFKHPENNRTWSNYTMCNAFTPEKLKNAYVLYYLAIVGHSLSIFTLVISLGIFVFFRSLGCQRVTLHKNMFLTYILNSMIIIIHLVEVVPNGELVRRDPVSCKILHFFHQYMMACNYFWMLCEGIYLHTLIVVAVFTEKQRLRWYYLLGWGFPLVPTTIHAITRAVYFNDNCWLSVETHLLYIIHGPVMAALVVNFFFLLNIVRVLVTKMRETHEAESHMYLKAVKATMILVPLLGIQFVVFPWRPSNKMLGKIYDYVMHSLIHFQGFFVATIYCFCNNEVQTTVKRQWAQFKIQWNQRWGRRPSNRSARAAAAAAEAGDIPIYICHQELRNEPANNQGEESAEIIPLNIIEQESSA
T2 sequence (O60894 27-148): as the sequence (O60894 27-148, chain 2 of 2) above
Chain of human AMY1(a) receptor (CTR/RAMP1), transiently transfected in Cos 7 cells (human), P30988 (P30988 25-474, chain 1 of 2): as the sequence (P30988 25-474) above
Chain of human AMY1(a) receptor (CTR/RAMP1), transiently transfected in Cos 7 cells (human), P30988 (O60894 27-148, chain 2 of 2, further chain): as the sequence (O60894 27-148, chain 2 of 2) above

Molecule: CC(C)C[C@H](NC(=O)CNC(=O)[C@H](C)NC(=O)[C@H](CC(C)C)NC(=O)[C@H](CCCNC(=N)N)NC(=O)[C@H](Cc1c[nH]cn1)NC(=O)[C@@H](NC(=O)[C@@H](NC(=O)[C@@H](N)CS)C(C)C)[C@@H](C)O)C(=O)N[C@@H](CC(C)C)C(=O)N[C@@H](CO)C(=O)N[C@@H](CCCNC(=N)N)C(=O)N[C@@H](CO)C(=O)NCC(=O)NCC(=O)N[C@H](C(=O)N[C@H](C(=O)N[C@@H](CCCCN)C(=O)N[C@@H](CC(N)=O)C(=O)N[C@@H](CC(N)=O)C(=O)N[C@@H](Cc1ccccc1)C(=O)N[C@H](C(=O)N1CCC[C@H]1C(=O)N[C@H](C(=O)N[C@@H](CC(N)=O)C(=O)N[C@H](C(=O)NCC(=O)N[C@@H](CO)C(=O)N[C@@H](CCCCN)C(=O)N[C@@H](C)C(=O)N[C@@H](Cc1ccccc1)C(N)=O)C(C)C)[C@@H](C)O)C(C)C)C(C)C)C(C)C [B, CGRP7-37]
Selectivity (fold-difference CGRP vs. AMY1) ([1]; CGRP (CLR/RAMP1) vs. AMY1 (CTR/RAMP1), Cos-7 cells): 15 fold
A2 (antilog of the negative pA2), CGRP (CLR/RAMP1) [1]: (A2: 4.9 nM)
A2 (antilog of the negative pA2), AMY1 (CTR/RAMP1) [2]: (3)^### (A2: 76 nM
Kb ([2]; human alpha CGRP, mean ± s.e.m (n), read-out: Antagonist potency (pKB), AMY1 (CTR/RAMP1) (converted)): 0.0759 µM

B1: K35C(S-Pam) CGRP8-37 A6 (peptide)
peptide: VTHRLAGLLSRSGGVVKNNFVPTNVGSC(Ethyl(2-palmitoyloxy))AF-NH2
modifications: N-terminus assumed
SMILES: CCCCCCCCCCCCCCCC(=O)OCCSC[C@H](NC(=O)[C@H](CO)NC(=O)CNC(=O)[C@@H](NC(=O)[C@H](CC(N)=O)NC(=O)[C@@H](NC(=O)[C@@H]1CCCN1C(=O)[C@@H](NC(=O)[C@H](Cc1ccccc1)NC(=O)[C@H](CC(N)=O)NC(=O)[C@H](CC(N)=O)NC(=O)[C@H](CCCCN)NC(=O)[C@@H](NC(=O)[C@@H](NC(=O)CNC(=O)CNC(=O)[C@H](CO)NC(=O)[C@H](CCCNC(=N)N)NC(=O)[C@H](CO)NC(=O)[C@H](CC(C)C)NC(=O)[C@H](CC(C)C)NC(=O)CNC(=O)[C@H](C)NC(=O)[C@H](CC(C)C)NC(=O)[C@H](CCCNC(=N)N)NC(=O)[C@H](Cc1c[nH]cn1)NC(=O)[C@@H](NC(=O)[C@@H](N)C(C)C)[C@@H](C)O)C(C)C)C(C)C)C(C)C)[C@@H](C)O)C(C)C)C(=O)N[C@@H](C)C(=O)N[C@@H](Cc1ccccc1)C(N)=O
A2 (antilog of the negative pA2; cAMP assay, Cos 7) [3]: 1.07 µM
antagonist potency pA2 (cAMP assay, Cos 7) [3]: 5.97

B2: R11C(S-Pam), K24C(S-Pam) α-CGRP8-37 A11 (peptide)
peptide: VTHC(Ethyl(2-palmitoyloxy))LAGLLSRSGGVVC(Ethyl(2-palmitoyloxy))NNFVPTNVGSKAF-NH2
A2 (antilog of the negative pA2; cAMP assay, Cos 7) [4]: > 100 nM
antagonist potency pA2 (cAMP assay, Cos 7) [4]: < 7

B3: CGRP7-37 B (peptide)
peptide: CVTHRLAGLLSRSGGVVKNNFVPTNVGSKAF-NH2
A2 (antilog of the negative pA2; cAMP assay, Cos 7) [4]: 4.9 nM
Selectivity (fold-difference CGRP vs. AMY1) [4]: 15 fold
antagonist potency pKB (cAMP assay, Cos 7) [4]: 8.31
A2 (antilog of the negative pA2; cAMP assay, Cos 7) [3]: 76 nM
antagonist potency pKB (cAMP assay, Cos 7) [3]: 7.12

B4: 7C(S-Pam) CGRP7-37 B1 (peptide)
peptide: CVTHRLAGLLSRSGGVVKNNFVPTNVGSKAF
modifications: here or on the partner: Cys 7 (CGRP numbering; residue 1 of the entry) S-conjugated to 2-(palmitoyloxy)ethyl (S-Pam); C-terminal amide
A2 (antilog of the negative pA2; cAMP assay, Cos 7) [3]: 2.2 nM
A2, with wash (cAMP assay, Cos 7) [3]: 1.2 nM
A2, without wash (cAMP assay, Cos 7) [3]: 0.5 nM
Fold change reduction in pA2 with wash [3]: 2.3 fold
antagonist potency pA2, with wash (cAMP assay, Cos 7) [3]: 8.93
antagonist potency pA2, without wash (cAMP assay, Cos 7) [3]: 9.3
antagonist potency pKB (cAMP assay, Cos 7) [3]: 8.66

Next, values leading:

A2 (antilog of the negative pA2), AMY1 (CTR/RAMP1) [2]: (A2: 1071 nM)
Antagonist potency (pA2), AMY1 (CTR/RAMP1) ([2]; pA2 for A6): 5.97 ± 0.14
Molecule: K35C(S-Pam) CGRP8-37 [A6]

A2 (antilog of the negative pA2), CGRP (CLR/RAMP1) [1]: (A2: 1.0 nM)
Molecule: β-CGRP8-37 [C1, reference compound]

From US20200353088A1, “PEPTIDE CONJUGATE CGRP RECEPTOR ANTAGONISTS AND METHODS OF PREPARATION AND USES THEREOF” (Auckland UniServices Limited, priority 2017, published 2020)
